Results published in publication PMC6036645.

Molecular target: Leptospira interrogans thermolysin encoded by LIC13322, prothermolysin fragment PepSY-M4 (74 kDa) (Leptospira interrogans)
Experiment: SEC

- stoichiometry N: 2
Substance: Leptospira interrogans thermolysin encoded by LIC13322, prothermolysin fragment PepSY-M4 (74 kDa) (enzyme)
